B1: L1D12 (antibody, V domains shown)
VH: QVQLVQSGGGLVQPGGSLRLSCAASGFTVSSNYMSWVRQAPGKGLEWVSVIYSGGSTYYADSVKGRFTISRDNSKNTLYLQMNSLRAEDTAVYYCARGFHDILTGYGMDVWGQGTTVTVSS
VL: SSELTQDPAVSVALGQTVRITCQGDSLRNYYAGWYQQKPGQAPVLVIYGKNNRPSGIPDRFSGSSSGNTASLTITGTQAEDEADYYCSSRDNSGTHLVEFGGGTKLTVL
notes: From a human naive scFv phage library; also called human BLyS antibody L1D12; LID12
B2: L1D12 (antibody, human IgG1, V domains shown)
VH: QVQLVQSGGGLVQPGGSLRLSCAASGFTVSSNYMSWVRQAPGKGLEWVSVIYSGGSTYYADSVKGRFTISRDNSKNTLYLQMNSLRAEDTAVYYCARGFHDILTGYGMDVWGQGTTVTVSS
VL: SSELTQDPAVSVALGQTVRITCQGDSLRNYYAGWYQQKPGQAPVLVIYGKNNRPSGIPDRFSGSSSGNTASLTITGTQAEDEADYYCSSRDNSGTHLVEFGGGTKLTVL
notes: also called LID12
B3: 2-1G11 (antibody, V domains shown)
VH: EVQLVESRGGVVQPGRSLRLSCAASGFTFSSYGMHWVRQAPGKGLEWVAVISYDGSNKYYADSVKGRFTISRDNSKNTLYLQMNSLRAEDAAVYYCARDRVDILTGYSIYGMDVWGQGTTVTVSS
VL: EIVMTQSPATLSLSPGERATLSCRASQSVSSYLAWYQQKPGQAPRLLIYDASKRATGIPARFSGSGSGTDFTLTISSLEPEDFAVYYCQQRSNWPLTFGGGTKVEIK
notes: From a human naive scFv phage library; also called human BLyS antibody 2-1G11
B4: L9G7 (antibody, human IgG1, V domains shown)
VH: QIQLVQSGAEVKKPGASVKVSCKASGYTFTSYGISWVRQAPGQGLEWMGWISAYNGNTNYAQKLQGRVTMTTDTSTSTAYMELRSLRSDDTAVYYCARTYYDILTGYYYYGMDVWGQGTTVTVSS
VL: EIVLTQSPGTLSLSPGERATLSCRTSQSVDTYLAWYQQKPGQAPRLLIYDASNRATGIPARFSGSGSGTDFTLTISSLEPEDFAVYYCQQRSNWPLTFGGGTKVEIK
B5: L9G7 (antibody, V domains shown)
VH: QIQLVQSGAEVKKPGASVKVSCKASGYTFTSYGISWVRQAPGQGLEWMGWISAYNGNTNYAQKLQGRVTMTTDTSTSTAYMELRSLRSDDTAVYYCARTYYDILTGYYYYGMDVWGQGTTVTVSS
VL: EIVLTQSPGTLSLSPGERATLSCRTSQSVDTYLAWYQQKPGQAPRLLIYDASNRATGIPARFSGSGSGTDFTLTISSLEPEDFAVYYCQQRSNWPLTFGGGTKVEIK
notes: From a human naive scFv phage library; also called human BLyS antibody L9G7
B6: 111D10D6G3 (antibody, V domains shown)
VH: QVQLQQPGAELVKPGASVKMSCKASGYTFTRHWITWVKQRPGQGLEWIGDIFPGSGSINYNEKFKSEATLTVEKSSSTAYMQLSSLTSEDSAVYYCARGDVDVWGTGTTVTVSS
VL: DIQMTQSPSSLSASLGERVSLTCRASQEIRGYLSWLQQKPNGTIKRLIYAASTLDSGVPKRFSATRSGSDFSLTISSLESEDFADYYCLQYASYPFTFGSGTKLEIK
notes: Mouse hybridoma monoclonal antibody purified on Protein G
B7: 111D10D6G3 (antibody, V domains shown)
VH: QVQLQQPGAELVKPGASVKMSCKASGYTFTRHWITWVKQRPGQGLEWIGDIFPGSGSINYNEKFKSEATLTVEKSSSTAYMQLSSLTSEDSAVYYCARGDVDVWGTGTTVTVSS
VL: DIQMTQSPSSLSASLGERVSLTCRASQEIRGYLSWLQQKPNGTIKRLIYAASTLDSGVPKRFSATRSGSDFSLTISSLESEDFADYYCLQYASYPFTFGSGTKLEIK
notes: Mouse hybridoma antibody purified on Protein G
B8: 97A3C2H4 (antibody, V domains shown)
VH: EVKLVESGGGLVQPGGSLKLSCAASGFTFSTYTMSWVRQTPEKRLEWVAYISYGGGSTSYPDTVKGRFTISRDNAKNTLYLQMSSLKSEDTAIYYCTRHVTVVENSMDYWGQGTSVTVSS
VL: DILLTQSPDILSVSPGERVSFSCRASQSIGTSIHWYQQRTNGSPRLLIKYVSESFSGTPSRFSGSGSGTAFTLTINSVESEDIADYYCQQTHSWPWTFGGGTKLEIK
notes: as for B6
B9: 97A3C2H4 (antibody, V domains shown)
VH: EVKLVESGGGLVQPGGSLKLSCAASGFTFSTYTMSWVRQTPEKRLEWVAYISYGGGSTSYPDTVKGRFTISRDNAKNTLYLQMSSLKSEDTAIYYCTRHVTVVENSMDYWGQGTSVTVSS
VL: DILLTQSPDILSVSPGERVSFSCRASQSIGTSIHWYQQRTNGSPRLLIKYVSESFSGTPSRFSGSGSGTAFTLTINSVESEDIADYYCQQTHSWPWTFGGGTKLEIK
notes: as for B7
B10: 8E7D9C7F5 (antibody, V domains shown)
VH: QVQLQQSGVELARPGASVKLSCKASGYTFTSYGISWVKQRTGQALEWIGEIYPRSGNTYYNEKFKGKATLTADKSSSTAYMELRSLTSEDSAVYFCARSGPITTLVATDYGMDYWGQGTSVTVSS
VL: DIVLTQSPASLAVSLGQRATISCRASKSVSTSSYSYMHWYQQKPGQPPKLLIKFASNLESGVPARFSGSGSGTDFTLNIHPVEEEDAATYYCQHSREFPYTFGGGTKLEIK
notes: as for B6

Legend:
[1] = target: T1, hBLyS-ECD (His-tagged extracellular domain of human BLyS protein, Ala134-Leu285) (human, UniProt Q9Y275 134-285); assay: SPR (Biacore X100), antibody captured by anti-human Fc on CM5, hBLyS-ECD injected
T1 construct: Expressed in HEK293, purified on Ni column; also called immunogen
Protocol: Affinity constants were determined using a Biacore X100 instrument (purchased from GE Healthcare). Detailed operations and methods referred to the instrument manuals and detailed methods provided by manufacturers, specifically: determining affinity constant using a CM5 chip (Sensor Chip CM5, purchased from GE Healthcare). […] Then 1 M ethanolamine was injected in chip to block the remaining activation sites. After the antibody to be tested (i.e., the human BLyS antibody prepared by Embodiment 2) was captured by chip, 7 different gradient of immunogen dilutions (i.e., hBLyS-ECD) prepared by Embodiment 1 were injected and the binding and dissociation of antigen with antibody was detected by a Biacore instrument. The dissociation constant and binding constant were then fitted by Biacore X100 Evaluation Software 2.0, while the affinity constant was the ratio of dissociation constant to binding constant.

[2] = target: T2, biotinylated hBLyS-ECD (human, UniProt Q9Y275 134-285, biotinylated with Biotin-X-X-NHS (molar ratio 7:1), sites not stated); assay: ELISA, biotinylated hBLyS-ECD captured on streptavidin; antibody 13.3 nM
T2 construct: The hBLyS-ECD of Embodiment 1 after biotinylation (Embodiment 2); also called biotinylated immunogen; BLyS protein; not shown: His tag of the pCPC vector
Protocol: Streptavidin was first diluted to a final concentration of 1.0 μg/mL with PBS, and then 50 μL of diluted streptavidin per well was aliquoted into 96-well ELISA plate, which was subsequently sealed with plastic film and incubated at 4° C. overnight. On the next day the plate was washed four times with the plate washing buffer [PBS buffer containing 0.05% (v/v) Tween20] and added with the blocking solution [PBS buffer containing 0.05% (v/v) Tween20 and 1% (w/w) BSA] and blocked for 2 hours at 37° C. The blocking solution was removed, the biotinylated hBLyS-ECD prepared in Embodiment 2 was diluted with PBS to a final concentration of 50 ng/mL and then aliquoted into the 96-well ELISA plate at 50 μL per well and incubated for 1 hour at 37° C. After rinsing the plate four times with the plate washing buffer [PBS buffer containing 0.05% (v/v) Tween20], 100 μl of the purified lead antibody harvested in Embodiment 1 and 2 was pipetted into each well. After incubation for 1 hour at 37° C., the plate was rinsed four times with the plate washing buffer [PBS buffer containing 0.05% (v/v) Tween20]. HRP-labeled (horseradish peroxidase) secondary antibody (purchased from Sigma) was added in and incubated at 37° C. for 1 hour. The plate was then rinsed four times with the plate washing buffer [PBS buffer containing 0.05% (v/v) Tween20]. 100 μL of TMB substrate was aliquoted into each well and after incubation for 5 minutes at room temperature, 100 μL of stop solution (1.0 N HCl) was aliquoted into each well. A₄₅₀ₙₘ values were read via an ELISA plate reader (SpectraMax M5e purchased from Molecular Devices) and the results were shown in FIGS. 5A-5B and Table 10.

[3] = target: T3, biotinylated hBLyS-ECD (human, UniProt Q9Y275 134-285, biotinylated with Biotin-X-X-NHS (molar ratio 7:1); sites not stated); assay: blocking ELISA: biotinylated hBLyS-ECD on coated BAFF R, antibody 4 nM
T3 construct: also called biotinylated immunogen; BLyS protein
Protocol: (§1) BAFF R (purchased from R & D Systems) was aliquoted into 96-well ELISA plate at 50 ng per well, and the plate was sealed with plastic film and incubated overnight at 4° C. On the next day the plate was washed four times with the plate washing buffer [PBS buffer containing 0.05% (v/v) Tween20] and added with blocking solution [PBS buffer containing 0.05% (v/v) Tween20 and 1% (w/w) BSA], then blocked for 1 hour at room temperature. The blocking solution was removed and 50 μL per well of the lead antibodies prepared in Embodiment 1 and 2 were added followed by the addition of 50 μL per well of the biotinylated hBLyS-ECD prepared in Embodiment 2. After incubation for 1 hour at 37° C., the plate was washed four times with the plate washing buffer [PBS buffer containing 0.05% (v/v) Tween20]. 100 μL per well of HRP-labeled (horseradish peroxidase) avidin (purchased from Sigma) was added and incubated at 37° C. for 1 hour. The plate was then washed four times with the plate washing buffer [PBS buffer containing 0.05% (v/v) Tween20]. 100 μL of TMB substrate was aliquoted into each well and after incubation for 5 minutes at room temperature, then 100 μL of stop solution (1.0 N HCl) was aliquoted into each well. A₄₅₀ₙₘ values were read with an ELISA plate reader (SpectraMax 384plus, Molecular Device) and the results were shown in FIGS. 9A-9B and Table 15. It was shown in Table 15 that the binding of BLyS protein to its receptor BAFF R could be blocked by the BLyS antibody.

[4] = target: T3, biotinylated hBLyS-ECD; assay: blocking ELISA: biotinylated hBLyS-ECD on coated BAFF R, antibody 0.8 nM
Protocol: as §1

[5] = target: T3, biotinylated hBLyS-ECD; assay: blocking ELISA: biotinylated hBLyS-ECD on coated BAFF R, antibody 0.00128 nM
Protocol: BLyS antibody blocking the binding of the BLyS protein to its receptor BAFF R was detected by the receptor-ligand binding assay of BLyS protein.
as §1

T2 sequence (Q9Y275 134-285): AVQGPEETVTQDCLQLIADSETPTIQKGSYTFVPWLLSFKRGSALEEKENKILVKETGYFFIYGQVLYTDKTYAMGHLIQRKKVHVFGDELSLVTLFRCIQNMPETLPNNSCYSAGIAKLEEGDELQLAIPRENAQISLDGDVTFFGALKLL
T3 sequence (Q9Y275 134-285): as above

| Binder | Kd [1] [nM] | koff [1] [s⁻¹] | kon [1] [M⁻¹ s⁻¹] | OD450 nm [2] | OD450 nm [3] [OD450 nm] | OD450 nm [4] [OD450 nm] | OD450 nm [5] [OD450 nm] |
| --- | --- | --- | --- | --- | --- | --- | --- |
| B1 | 2.42 | 0.00136 | 561000 | – | – | – | – |
| B2 | – | – | – | 1.61 | – | – | – |
| B3 | 0.637 | 0.000946 | 1.48e+06 | – | – | – | – |
| B4 | – | – | – | 1.6 | – | – | – |
| B5 | 0.525 | 0.000244 | 465000 | – | – | – | – |
| B6 | – | – | – | – | 0.67 | 0.717 | 1.27 |
| B7 | – | – | – | 1.78 | – | – | – |
| B8 | – | – | – | – | 0.208 | 0.424 | 1.34 |
| B9 | – | – | – | 2.82 | – | – | – |
| B10 | – | – | – | – | 0.173 | 0.294 | 1.62 |

Reference: patent US20210347873A1 (SHANGHAI PHARMAEXPLORER, published 2021)
